Results: patent US20030181404A1 (BETH ISRAEL DEACONESS MEDICAL CENTER, published 2003)

How the values were obtained:
[1] = target: EGF receptor (EGF-R, ErbB-1) (human (human breast cancer cell lines), UniProt P00533 25-1210); experiment: co-immunoprecipitation with anti-CHK antibodies from EGF-stimulated Flag-CHK MCF-7 lysates, immunoblot
ErbB-4 = target: T1, ErbB-4 (human (human breast cancer cell line), UniProt Q15303 26-1308, limits assumed); experiment: co-immunoprecipitation from HRG-stimulated Flag-CHK MCF-7 lysates
T1 construct: also called p180 ErbB-4

ErbB-3 = target: T2, ErbB-3 (human (human breast cancer cell line), UniProt P21860 20-1342, tyrosine-phosphorylated upon HRG stimulation (sites not given)); experiment: co-immunoprecipitation with anti-CHK antibody from HRG-stimulated Flag-CHK MCF-7 lysates, anti-ErbB-3 immunoblot
T2 construct: also called p180 ErbB-3

Measured: binding result

T1 sequence (Q15303 26-1308 limits assumed): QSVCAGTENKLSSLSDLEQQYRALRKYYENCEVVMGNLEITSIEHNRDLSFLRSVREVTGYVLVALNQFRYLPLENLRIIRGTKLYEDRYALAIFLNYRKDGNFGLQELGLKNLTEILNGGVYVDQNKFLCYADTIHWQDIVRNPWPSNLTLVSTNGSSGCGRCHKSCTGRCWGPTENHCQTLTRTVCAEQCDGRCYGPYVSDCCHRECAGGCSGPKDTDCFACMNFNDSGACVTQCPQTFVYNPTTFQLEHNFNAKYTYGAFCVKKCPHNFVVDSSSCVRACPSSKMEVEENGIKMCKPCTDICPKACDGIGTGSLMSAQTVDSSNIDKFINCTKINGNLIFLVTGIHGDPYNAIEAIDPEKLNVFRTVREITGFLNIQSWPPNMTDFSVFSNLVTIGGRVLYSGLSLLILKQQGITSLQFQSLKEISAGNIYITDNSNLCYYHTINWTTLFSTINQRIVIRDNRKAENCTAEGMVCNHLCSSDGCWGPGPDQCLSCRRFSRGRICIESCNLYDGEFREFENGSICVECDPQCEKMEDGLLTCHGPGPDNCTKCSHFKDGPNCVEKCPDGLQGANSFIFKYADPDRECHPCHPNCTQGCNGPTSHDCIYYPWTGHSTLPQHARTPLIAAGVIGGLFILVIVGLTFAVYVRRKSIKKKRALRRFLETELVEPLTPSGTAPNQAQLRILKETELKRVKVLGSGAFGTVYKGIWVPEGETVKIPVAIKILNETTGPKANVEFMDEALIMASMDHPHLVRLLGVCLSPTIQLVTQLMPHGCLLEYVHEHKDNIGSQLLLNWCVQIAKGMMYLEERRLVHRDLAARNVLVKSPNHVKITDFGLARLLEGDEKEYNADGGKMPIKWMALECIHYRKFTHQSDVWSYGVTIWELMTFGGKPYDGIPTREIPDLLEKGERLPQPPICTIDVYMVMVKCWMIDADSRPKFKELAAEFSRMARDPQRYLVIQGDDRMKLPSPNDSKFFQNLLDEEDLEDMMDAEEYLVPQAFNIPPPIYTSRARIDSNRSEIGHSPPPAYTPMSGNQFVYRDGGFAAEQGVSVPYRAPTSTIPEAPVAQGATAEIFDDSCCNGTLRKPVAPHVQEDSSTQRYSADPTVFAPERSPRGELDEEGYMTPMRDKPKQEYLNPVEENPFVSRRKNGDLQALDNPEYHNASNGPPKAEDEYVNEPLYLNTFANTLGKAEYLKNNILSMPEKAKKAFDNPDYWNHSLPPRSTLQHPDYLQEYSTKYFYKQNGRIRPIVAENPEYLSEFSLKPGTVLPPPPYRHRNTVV
T2 sequence (P21860 20-1342 limits assumed): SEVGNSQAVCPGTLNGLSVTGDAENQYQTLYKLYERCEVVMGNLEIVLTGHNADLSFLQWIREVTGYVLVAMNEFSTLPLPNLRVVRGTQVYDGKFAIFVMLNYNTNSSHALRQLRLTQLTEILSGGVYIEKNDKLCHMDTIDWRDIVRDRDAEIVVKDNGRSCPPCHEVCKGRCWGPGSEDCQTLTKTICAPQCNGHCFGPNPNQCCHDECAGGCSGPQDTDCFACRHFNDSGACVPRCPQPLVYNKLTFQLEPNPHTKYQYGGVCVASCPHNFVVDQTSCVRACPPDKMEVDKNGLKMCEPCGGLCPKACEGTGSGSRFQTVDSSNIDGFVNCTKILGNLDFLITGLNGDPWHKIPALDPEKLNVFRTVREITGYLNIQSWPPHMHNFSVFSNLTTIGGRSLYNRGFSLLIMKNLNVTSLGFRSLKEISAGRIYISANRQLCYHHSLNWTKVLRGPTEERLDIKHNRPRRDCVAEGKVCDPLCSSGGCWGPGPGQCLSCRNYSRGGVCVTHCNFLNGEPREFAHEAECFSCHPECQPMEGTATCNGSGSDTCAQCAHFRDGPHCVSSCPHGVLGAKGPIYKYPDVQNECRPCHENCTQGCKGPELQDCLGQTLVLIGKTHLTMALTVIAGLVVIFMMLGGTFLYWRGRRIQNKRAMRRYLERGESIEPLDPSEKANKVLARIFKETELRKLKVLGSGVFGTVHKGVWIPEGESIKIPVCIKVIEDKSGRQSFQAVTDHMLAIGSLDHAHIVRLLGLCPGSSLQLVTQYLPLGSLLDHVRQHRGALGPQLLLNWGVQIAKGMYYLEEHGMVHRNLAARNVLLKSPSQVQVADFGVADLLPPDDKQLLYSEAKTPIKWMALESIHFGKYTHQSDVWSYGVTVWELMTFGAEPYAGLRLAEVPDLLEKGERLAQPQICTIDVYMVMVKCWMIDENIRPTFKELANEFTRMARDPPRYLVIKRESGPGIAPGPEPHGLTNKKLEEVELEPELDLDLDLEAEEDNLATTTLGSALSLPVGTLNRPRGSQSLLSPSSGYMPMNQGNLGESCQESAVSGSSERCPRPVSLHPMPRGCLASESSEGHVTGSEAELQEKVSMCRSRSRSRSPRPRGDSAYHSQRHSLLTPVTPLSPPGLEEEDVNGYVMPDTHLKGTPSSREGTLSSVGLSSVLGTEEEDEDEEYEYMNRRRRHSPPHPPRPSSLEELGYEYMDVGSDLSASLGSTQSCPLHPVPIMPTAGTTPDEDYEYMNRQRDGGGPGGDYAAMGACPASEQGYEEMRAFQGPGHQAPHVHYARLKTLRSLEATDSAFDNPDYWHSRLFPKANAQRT

B1: Flag-CHK (Flag epitope-tagged CHK expressed in MCF-7 cells from pCDNA3 neo) (enzyme)
chain: DYKDDDDKMAGRGSLVSWRAFHGCDSAEELPRVSPRFLRAWHPPPVSARMPTRRWAPGTQCITKCEHTRPKPGELAFRKGDVVTILEACENKSWYRVKHHTSGQEGLLAAGALRDGEALSADPKLSLMPWFHGKISGQEAVQQLQPPEDGLFLVRESARHPGDYVLCVSFGRDVIHYRVLHRDGHLTIDEAVFFCNLMDMVEHYSKDKGAICTKLVRPKRKHGTKSAEEELARAGWLLNLQHLTLGAQIGEGEFGAVLQGEYLGQKVAVKNIKCDVTAQAFLDETAVMTKMQHENLVRLLGVILHQGLYIVMEHVSKGNLVNFLRTRGRALVNTAQLLQFSLHVAEGMEYLESKKLVHRDLAARNILVSEDLVAKVSDFGLAKAERKGLDSSRLPVKWTAPEALKHGFTSKSDVWSFGVLLWEVFSYGRAPYPKMSLKEVSEAVEKGYRMEPPEGCPGPVHVLMSSCWEAEPPAGHPSANWPRSWPGSYAVQVPQPPSQGRTPTVHLAPKPGALTPPGGPWPQRTERVESAAWGH
notes: An initiator Met stands before the Flag tag; also called intact CHK
no binding: [1] | ErbB-4 | ErbB-3
